IC50 data for two molecules are collected here from PMC8748714 (2022).

No end group written: not given here.

One test concerns the target T1, GLP-1R K202A (Homo sapiens).
T1 chain: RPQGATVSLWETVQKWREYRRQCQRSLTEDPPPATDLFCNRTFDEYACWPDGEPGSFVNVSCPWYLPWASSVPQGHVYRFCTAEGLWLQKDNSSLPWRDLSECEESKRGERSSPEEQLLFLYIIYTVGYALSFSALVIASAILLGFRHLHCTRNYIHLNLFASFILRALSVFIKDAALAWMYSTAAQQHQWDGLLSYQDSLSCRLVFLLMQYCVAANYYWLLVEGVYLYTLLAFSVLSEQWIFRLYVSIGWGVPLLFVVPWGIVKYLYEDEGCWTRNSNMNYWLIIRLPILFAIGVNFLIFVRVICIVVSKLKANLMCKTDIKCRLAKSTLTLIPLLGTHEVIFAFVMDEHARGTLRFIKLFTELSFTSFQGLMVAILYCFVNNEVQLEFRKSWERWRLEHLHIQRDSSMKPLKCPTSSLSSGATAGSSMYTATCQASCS

The target in the next test is T2, GLP-1R S193A (Homo sapiens).
T2 chain: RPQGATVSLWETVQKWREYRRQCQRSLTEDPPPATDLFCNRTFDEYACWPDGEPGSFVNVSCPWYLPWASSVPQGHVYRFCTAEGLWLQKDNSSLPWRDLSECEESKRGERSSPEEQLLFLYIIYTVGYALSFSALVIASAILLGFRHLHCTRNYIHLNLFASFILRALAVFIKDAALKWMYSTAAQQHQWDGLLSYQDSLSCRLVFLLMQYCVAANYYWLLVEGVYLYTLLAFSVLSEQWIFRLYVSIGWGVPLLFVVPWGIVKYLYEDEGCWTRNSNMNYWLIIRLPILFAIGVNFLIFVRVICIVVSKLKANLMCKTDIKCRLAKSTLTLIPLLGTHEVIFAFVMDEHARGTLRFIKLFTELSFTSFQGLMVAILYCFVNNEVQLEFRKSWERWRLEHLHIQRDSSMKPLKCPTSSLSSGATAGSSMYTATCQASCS

The next test deals with T3, GLP-1R D198A (Homo sapiens).
T3 chain: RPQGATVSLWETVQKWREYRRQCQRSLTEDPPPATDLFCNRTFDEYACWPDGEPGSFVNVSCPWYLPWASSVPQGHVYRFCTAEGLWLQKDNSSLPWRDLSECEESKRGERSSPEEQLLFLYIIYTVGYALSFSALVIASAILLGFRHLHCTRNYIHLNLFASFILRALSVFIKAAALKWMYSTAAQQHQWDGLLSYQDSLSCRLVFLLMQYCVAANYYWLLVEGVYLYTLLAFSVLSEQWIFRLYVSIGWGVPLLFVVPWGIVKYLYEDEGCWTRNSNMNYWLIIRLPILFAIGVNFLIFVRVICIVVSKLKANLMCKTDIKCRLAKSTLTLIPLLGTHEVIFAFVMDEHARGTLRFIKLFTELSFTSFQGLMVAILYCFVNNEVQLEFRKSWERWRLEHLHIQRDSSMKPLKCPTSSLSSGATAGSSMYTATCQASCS

In a further test the target is T4, GLP-1R Q210A (Homo sapiens).
T4 chain: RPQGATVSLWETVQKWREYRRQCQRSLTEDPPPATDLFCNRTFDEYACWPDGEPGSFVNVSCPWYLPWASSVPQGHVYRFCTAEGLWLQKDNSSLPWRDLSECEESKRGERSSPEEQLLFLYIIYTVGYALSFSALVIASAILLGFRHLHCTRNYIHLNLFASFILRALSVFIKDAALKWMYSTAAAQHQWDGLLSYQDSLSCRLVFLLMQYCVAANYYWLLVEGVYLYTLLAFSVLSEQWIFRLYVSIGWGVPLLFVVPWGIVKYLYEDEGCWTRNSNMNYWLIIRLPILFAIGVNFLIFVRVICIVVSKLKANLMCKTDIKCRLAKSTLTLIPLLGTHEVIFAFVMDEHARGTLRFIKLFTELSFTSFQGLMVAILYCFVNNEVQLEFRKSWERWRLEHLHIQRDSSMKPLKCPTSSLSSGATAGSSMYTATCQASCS

The target in the next test is T5, GLP-1R L142A (Homo sapiens).
T5 chain: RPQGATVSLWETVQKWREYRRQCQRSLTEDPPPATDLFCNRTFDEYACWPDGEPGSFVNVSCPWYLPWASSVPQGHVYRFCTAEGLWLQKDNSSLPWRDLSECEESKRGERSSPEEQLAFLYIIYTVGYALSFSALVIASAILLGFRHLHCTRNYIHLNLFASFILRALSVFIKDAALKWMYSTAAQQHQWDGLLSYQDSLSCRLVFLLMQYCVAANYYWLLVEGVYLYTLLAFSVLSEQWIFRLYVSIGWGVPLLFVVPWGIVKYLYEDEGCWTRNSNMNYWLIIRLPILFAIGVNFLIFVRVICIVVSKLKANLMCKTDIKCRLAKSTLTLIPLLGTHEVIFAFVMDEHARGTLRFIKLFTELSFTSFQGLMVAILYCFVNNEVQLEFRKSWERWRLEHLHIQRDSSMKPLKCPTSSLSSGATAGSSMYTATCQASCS

Regarding HAEGTFTSDVSSYLEGQAAKEFIAWLVKGR (not fully specified (C-terminus)) [glucagon-like peptide-1], the concentration for half-maximal inhibition (IC50) (as a rule, the concentration needed to halve the response being measured) came to 6.03 nM in the test with GLP-1R K202A, 5.01 nM with GLP-1R S193A and 155 nM with GLP-1R D198A.

For HSQGTFTSDYSKYLDSRRAQDFVQWLMNTKRNRNNIA [oxyntomodulin], the 50% inhibitory concentration (IC50) is 191 nM in the test with GLP-1R K202A; 14.8 nM in the test with GLP-1R S193A; 66.1 nM with GLP-1R Q210A; 81.3 nM with GLP-1R L142A; 708 nM in the test with GLP-1R D198A.
